Source: patent publication US20240124553A1

Experiments:
Experiment in all cases: flow cytometry, transfected 293T cells
[1] = target: CHIKV E2-E1 envelope glycoproteins (strain S27), E2 mutant S61A (chikungunya virus strain S27) (UniProt Q8JUX5)
[2] = target: CHIKV E2-E1 envelope glycoproteins (strain S27), E2 mutant R104A (chikungunya virus strain S27) (UniProt Q8JUX5)
[3] = target: CHIKV E2-E1 envelope glycoproteins (strain S27), E2 mutant T45A (chikungunya virus strain S27) (UniProt Q8JUX5)
[4] = target: CHIKV E2-E1 envelope glycoproteins (strain S27), E2 mutant G108A (chikungunya virus strain S27) (UniProt Q8JUX5)
[5] = target: CHIKV E2-E1 envelope glycoproteins (strain S27), E2 mutant L34A (chikungunya virus strain S27) (UniProt Q8JUX5)
[6] = target: CHIKV E2-E1 envelope glycoproteins (strain S27), E2 mutant K66A (chikungunya virus strain S27) (UniProt Q8JUX5)
[7] = target: CHIKV E2-E1 envelope glycoproteins (strain S27), E2 mutant S88A (chikungunya virus strain S27) (UniProt Q8JUX5)
[8] = target: CHIKV E2-E1 envelope glycoproteins (strain S27), E2 mutant H130A (chikungunya virus strain S27) (UniProt Q8JUX5)
[9] = target: CHIKV E2-E1 envelope glycoproteins (strain S27), E2 mutant T110A (chikungunya virus strain S27) (UniProt Q8JUX5)
[10] = target: CHIKV E2-E1 envelope glycoproteins (strain S27), E2 mutant R68A (chikungunya virus strain S27) (UniProt Q8JUX5)
[11] = target: CHIKV E2-E1 envelope glycoproteins (strain S27), E2 mutant C105A (chikungunya virus strain S27) (UniProt Q8JUX5)
[12] = target: CHIKV E2-E1 envelope glycoproteins (strain S27), E2 mutant D60A (chikungunya virus strain S27) (UniProt Q8JUX5)
[13] = target: CHIKV E2-E1 envelope glycoproteins (strain S27), E2 mutant F84A (chikungunya virus strain S27) (UniProt Q8JUX5)
[14] = target: CHIKV E2-E1 envelope glycoproteins (strain S27), E2 mutant P90A (chikungunya virus strain S27) (UniProt Q8JUX5)
[15] = target: CHIKV E2-E1 envelope glycoproteins (strain S27), E2 mutant G114A (chikungunya virus strain S27) (UniProt Q8JUX5)
[16] = target: CHIKV E2-E1 envelope glycoproteins (strain S27), E2 mutant D63A (chikungunya virus strain S27) (UniProt Q8JUX5)
[17] = target: CHIKV E2-E1 envelope glycoproteins (strain S27), E2 mutant R119A (chikungunya virus strain S27) (UniProt Q8JUX5)
[18] = target: CHIKV E2-E1 envelope glycoproteins (strain S27), E2 mutant G95A (chikungunya virus strain S27) (UniProt Q8JUX5)
[19] = target: CHIKV E2-E1 envelope glycoproteins (strain S27), E2 mutant L83A (chikungunya virus strain S27) (UniProt Q8JUX5)
[20] = target: CHIKV E2-E1 envelope glycoproteins (strain S27), E2 mutant I121A (chikungunya virus strain S27) (UniProt Q8JUX5)
[21] = target: CHIKV E2-E1 envelope glycoproteins (strain S27), E2 mutant T112A (chikungunya virus strain S27) (UniProt Q8JUX5)
[22] = target: CHIKV E2-E1 envelope glycoproteins (strain S27), E2 mutant R80A (chikungunya virus strain S27) (UniProt Q8JUX5)
[23] = target: CHIKV E2-E1 envelope glycoproteins (strain S27), E2 mutant P106A (chikungunya virus strain S27) (UniProt Q8JUX5)
[24] = target: CHIKV E2-E1 envelope glycoproteins (strain S27), E2 mutant T96A (chikungunya virus strain S27) (UniProt Q8JUX5)
[25] = target: CHIKV E2-E1 envelope glycoproteins (strain S27), E2 mutant D77A (chikungunya virus strain S27) (UniProt Q8JUX5)
[26] = target: CHIKV E2-E1 envelope glycoproteins (strain S27), E2 mutant T92A (chikungunya virus strain S27) (UniProt Q8JUX5)
[27] = target: CHIKV E2-E1 envelope glycoproteins (strain S27), E2 mutant A41S (chikungunya virus strain S27) (UniProt Q8JUX5)
[28] = target: CHIKV E2-E1 envelope glycoproteins (strain S27), E2 mutant E109A (chikungunya virus strain S27) (UniProt Q8JUX5)
[29] = target: CHIKV E2-E1 envelope glycoproteins (strain S27), E2 mutant R86A (chikungunya virus strain S27) (UniProt Q8JUX5)
[30] = target: CHIKV E2-E1 envelope glycoproteins (strain S27), E2 mutant G55A (chikungunya virus strain S27) (UniProt Q8JUX5)
[31] = target: CHIKV E2-E1 envelope glycoproteins (strain S27), E2 mutant F129A (chikungunya virus strain S27) (UniProt Q8JUX5)
[32] = target: CHIKV E2-E1 envelope glycoproteins (strain S27), E2 mutant L111A (chikungunya virus strain S27) (UniProt Q8JUX5)
[33] = target: CHIKV E2-E1 envelope glycoproteins (strain S27), E2 mutant L52A (chikungunya virus strain S27) (UniProt Q8JUX5)

| Substance | Binding Reactivity (% WT) [1] [% WT] | Binding Reactivity (% WT) [3] [% WT] | Binding Reactivity (% WT) [4] [% WT] | Binding Reactivity (% WT) [5] [% WT] | Binding Reactivity (% WT) [7] [% WT] | Binding Reactivity (% WT) [8] [% WT] | Binding Reactivity (% WT) [9] [% WT] | Binding Reactivity (% WT) [10] [% WT] | Binding Reactivity (% WT) [11] [% WT] | Binding Reactivity (% WT) [12] [% WT] | Binding Reactivity (% WT) [13] [% WT] | Binding Reactivity (% WT) [14] [% WT] | Binding Reactivity (% WT) [15] [% WT] | Binding Reactivity (% WT) [16] [% WT] | Binding Reactivity (% WT) [17] [% WT] | Binding Reactivity (% WT) [18] [% WT] | Binding Reactivity (% WT) [19] [% WT] | Binding Reactivity (% WT) [20] [% WT] | Binding Reactivity (% WT) [21] [% WT] | Binding Reactivity (% WT) [22] [% WT] | also measured |
| --- | --- | --- | --- | --- | --- | --- | --- | --- | --- | --- | --- | --- | --- | --- | --- | --- | --- | --- | --- | --- | --- |
| CHIKV mAb C9 (antibody) | 93.1 | 71.7 | 71.9 | 34.4 | 122 | 106 | 88 | 64.8 | -0.2 | 74 | 76.2 | 100 | 67.5 | 71.8 | 88 | 86.2 | 18.7 | 96.7 | 50.5 | 68.8 | Binding Reactivity (% WT) [2]: 91.6 % WT; Binding Reactivity (% WT) [6]: 85.7 % WT; Binding Reactivity (% WT) [23]: 88.9 % WT; Binding Reactivity (% WT) [24]: 99.2 % WT; Binding Reactivity (% WT) [25]: 93.3 % WT; Binding Reactivity (% WT) [26]: 96 % WT; Binding Reactivity (% WT) [27]: 70.7 % WT; Binding Reactivity (% WT) [28]: 109 % WT; Binding Reactivity (% WT) [29]: 121 % WT; Binding Reactivity (% WT) [30]: 75.9 % WT; Binding Reactivity (% WT) [31]: 6.7 % WT; Binding Reactivity (% WT) [32]: 23.2 % WT; Binding Reactivity (% WT) [33]: 84.7 % WT |
| CHIKV mAb CHKV-88 (antibody) | 105 | 85.7 | 71.1 | 58.3 | 111 | 110 | 107 | 74.7 | -0.1 | 56.5 | 83.9 | 119 | 65.3 | 85 | 99.5 | 89 | 38.8 | 111 | 71.6 | 128 | Binding Reactivity (% WT) [2]: 76 % WT; Binding Reactivity (% WT) [6]: 103 % WT; Binding Reactivity (% WT) [23]: 105 % WT; Binding Reactivity (% WT) [24]: 103 % WT; Binding Reactivity (% WT) [25]: 94.7 % WT; Binding Reactivity (% WT) [26]: 109 % WT; Binding Reactivity (% WT) [27]: 89.8 % WT; Binding Reactivity (% WT) [28]: 124 % WT; Binding Reactivity (% WT) [29]: 110 % WT; Binding Reactivity (% WT) [30]: 111 % WT; Binding Reactivity (% WT) [31]: 25.1 % WT; Binding Reactivity (% WT) [32]: 50.9 % WT; Binding Reactivity (% WT) [33]: 100 % WT |
| Mxra8-Fc (mouse Mxra8 extracellular domain fused to mouse IgG2b Fc) (Fc fusion) | 116 | 81.2 | 76.7 | 28.3 | 94 | 101 | 99.6 | 66.1 | -0.1 | 102 | 77.6 | 114 | 79.1 | 85 | 0 | 94.6 | 17.3 | 12.1 | 44.2 | 131 | Binding Reactivity (% WT) [23]: 91.2 % WT; Binding Reactivity (% WT) [24]: 95.6 % WT; Binding Reactivity (% WT) [25]: 83.7 % WT; Binding Reactivity (% WT) [26]: 98.6 % WT; Binding Reactivity (% WT) [27]: 4.9 % WT; Binding Reactivity (% WT) [28]: 97.4 % WT; Binding Reactivity (% WT) [29]: 91.5 % WT; Binding Reactivity (% WT) [30]: 101 % WT; Binding Reactivity (% WT) [31]: 4.1 % WT; Binding Reactivity (% WT) [32]: 25.7 % WT; Binding Reactivity (% WT) [33]: 86.8 % WT |
